Test results reported in publication PMC11258540 (Molecular Cell, 2024).
Positions count from the first letter of the chain named. Names may count otherwise. Where two headings read alike, the source gives them in different places.

B1: human PUS3 D118A, catalytically inactive variant (enzyme, UniProt Q9BZE2 1-481, looked up)
chain: MAYNDTDRNQTEKLLKRVRELEQEVQRLKKEQAKNKEDSNIRENSAGAGKTKRAFDFSAHGRRHVALRIAYMGWGYQGFASQENTNNTIEEKLFEALTKTRLVESRQTSNYHRCGRTAKGVSAFGQVISLDLRSQFPRGRDSEDFNVKEEANAAAEEIRYTHILNRVLPPDIRILAWAPVEPSFSARFSCLERTYRYFFPRADLDIVTMDYAAQKYVGTHDFRNLCKMDVANGVINFQRTILSAQVQLVGQSPGEGRWQEPFQLCQFEVTGQAFLYHQVRCMMAILFLIGQGMEKPEIIDELLNIEKNPQKPQYSMAVEFPLVLYDCKFENVKWIYDQEAQEFNITHLQQLWANHAVKTHMLYSMLQGLDTVPVPCGIGPKMDGMTEWGNVKPSVIKQTSAFVEGVKMRTYKPLMDRPKCQGLESRIQHFVRRGRIEHPHLFHEEETKAKRDCNDTLEEENTNLETPTKRVCVDTEIKSII
B2: human PUS3 H355T/T359A (enzyme, UniProt Q9BZE2 1-481, looked up)
chain: B1 chain with A118D, H355T, T359A

Legend:
[1] = target: the molecule itself; test: SEC
[2] = target: the molecule itself

Protein | stoichiometry N [1] | stoichiometry N [2]
B1 | 2 | –
B2 | – | 2
